Laboratory results: patent US20190359653A1, “SELECTIVE PEPTIDE INHIBITORS OF FRIZZLED” (Genentech, Inc., priority 2016, published 2019)

Target: FZD7 class proteins
Assay: ELISA of biotinylated Wnt binding to FZD CRD-Fc with or without peptide

fold enhancement of binding by Fz7-21 or dFz7-21: 1.5 to 2 fold
B1: Biotinylated Wnt5a (ligand)
chain: IIGAQPLCSQLAGLSQGQKKLCHLYQDHMQYIGEGAKTGIKECQYQFRHRRWNCSTVDNTSVFGRVMQIGSRETAFTYAVSAAGVVNAMSRACREGELSTCGCSRAARPKDLPRDWLWGGCGDNIDYGYRFAKEFVDARERERIHAKGSYESARILMNLHNNEAGRRTVYNLADVACKCHGVSGSCSLKTCWLQLADFRKVGDALKEKYDSAAAMRLNSRGKLVQVNSRFNSPTTQDLVYIDPSPDYCVRNESTGSLGTQGRLCNKTSEGMDGCELMCCGRGYDQFKTVQTERCHCKFHWCCYVKCKKCTEIVDQFVCK
modifications: Biotinylated with the Pierce reagent cat no. 21338; the positions are not stated and the letters are unchanged. The lipid modification of Wnt (fatty acyl moiety) is not carried by the letters.
